T1: EV-A71 VP1 (capsid protein) (Enterovirus A71) (UniProt Q66478)
T1 sequence: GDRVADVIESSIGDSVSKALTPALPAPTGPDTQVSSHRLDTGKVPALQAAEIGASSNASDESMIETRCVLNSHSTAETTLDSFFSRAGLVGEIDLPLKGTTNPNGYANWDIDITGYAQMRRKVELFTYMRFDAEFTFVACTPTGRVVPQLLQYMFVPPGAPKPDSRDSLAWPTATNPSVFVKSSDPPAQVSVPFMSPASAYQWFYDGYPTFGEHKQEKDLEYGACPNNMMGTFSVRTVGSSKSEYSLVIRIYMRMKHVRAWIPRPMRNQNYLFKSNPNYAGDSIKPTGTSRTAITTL

B1: V11 (ssDNA)
DNA: ACTAAGCCACCGTGTCCACCCTCGCCGAGTTTTCGTAACTATATCTTGTGGTTCCTATTGCTGCGTCACTCTGGAT
modifications: dU at positions 22,30,31,32,33,36,40,42,44,46,47,49,52,53,56,58,59,62,66,70,72,76 (printed 'U, uracil'; every T 3' of the 18-nt primer; whether the dU carries a C5 group is not stated)

Tests used:
[1] = biological target: T1, EV-A71 VP1 (capsid protein) (Enterovirus A71); test: ELISA; conditions: 5 mM Mg2+; VP1 coated at 200 ng/mL; unit given as nm; given with U (uracil) mixed with t in a DNA aptamer; U may stand for T; 1x PBS, 5 mM MgCl2, 1% BSA, 1 ug/mL tRNA, 0.02% Tween-20, room temperature, 1 h; pH not stated
Bovine serum albumin = Bovine serum albumin (Bos taurus (Bovine), UniProt P02769 25-607); test: ELONA; PBS, 5 mM MgCl2, 1% BSA, 1 ug/mL tRNA, 0.02% Tween-20, RT; VP1 coated on plate; conditions: label: 5'-biotin
Sequence of Bovine serum albumin (P02769 25-607): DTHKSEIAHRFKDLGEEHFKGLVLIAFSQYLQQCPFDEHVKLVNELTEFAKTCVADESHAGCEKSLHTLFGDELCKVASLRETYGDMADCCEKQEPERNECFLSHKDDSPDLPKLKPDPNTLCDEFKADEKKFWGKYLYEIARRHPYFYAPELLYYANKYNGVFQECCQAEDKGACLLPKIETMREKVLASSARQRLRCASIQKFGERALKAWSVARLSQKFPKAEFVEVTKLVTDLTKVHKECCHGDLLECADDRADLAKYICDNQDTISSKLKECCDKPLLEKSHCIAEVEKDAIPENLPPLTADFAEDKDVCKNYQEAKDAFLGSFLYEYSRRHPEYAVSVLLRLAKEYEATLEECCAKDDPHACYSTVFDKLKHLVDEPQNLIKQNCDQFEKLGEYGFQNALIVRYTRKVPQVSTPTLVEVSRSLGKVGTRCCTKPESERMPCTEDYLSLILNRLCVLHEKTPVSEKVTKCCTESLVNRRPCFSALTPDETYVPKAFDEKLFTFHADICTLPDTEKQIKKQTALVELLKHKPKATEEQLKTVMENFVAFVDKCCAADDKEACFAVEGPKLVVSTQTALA

Molecule	Kd [1]	binding result (Bovine serum albumin)
ACTAAGCCACCGTGTCCACCCUCGCCGAGUUUUCGUAACUAUAUCUUGUGGUUCCUAUUGCUGCGUCACUCUGGAU [V11]	4.28 nM	–
ACTAAGCCACCGTGTCCAUUCGAUUCGAUCUAAUUUGGUUCUUUCCUCACUUUUCAGUGCUGCGUCACUCUGGAU [V21]	4.55 nM	–
ACTAAGCCACCGTGTCCAUCAAUGGUGUGUGCAUUCGUGUGUUGUGUUGUUUGUUGUUUGCUGCGUCACUCUGGAU [V7]	32.7 nM	–
B1	–	no binding

— publication PMC8359077, “DNA aptamer against EV-A71 VP1 protein: selection and application”
